Laboratory results reported in US20250145723A1 (MINGHUI PHARMACEUTICAL HANGZHOU, published 2025).

What was measured:
[1] = target: T1, recombinant human IGF-1R-his (human, UniProt P08069 31-932); test: competition ELISA, coated hIGF-1R-his, competitor IGF-1-Fc 1.25 µg/mL
T1 construct: Recombinant his-tagged protein; also called hIGF-1R-his; hIGF1R-his; not shown: his tag
Method: Recombinant human IGF-1R-his antigens (5 μg/mL) were added to a 96-well plate for coating overnight at 4° C. The plate was washed with PBS, and then was blocked with 1% casein at room temperature for 1 h. The VHH samples were diluted 2-fold serially with 0.1% BSA/PBS, with a starting concentration of 20 μg/mL. […] The plate was washed three times with 0.1% PBST, horseradish peroxidase-labeled anti-human Fc tag antibodies (anti-human IgG-HRP, Abcam ab6759, 1:5,000, containing 1% casein) were added and incubated at room temperature for 30 min, and the plate was washed three times with 0.1% PBST. A TMB substrate solution (Thermo, 34028) was added for color development, the OD₄₅₀ was read using a microplate reader, and a curve was fit and the EC₅₀ value was calculated using Graphpad Prism software.

[2] = target: T2, recombinant mouse IGF-1R-his (mouse, UniProt Q60751 31-933); test: ELISA, coated antigen 5 µg/mL
T2 construct: not shown: his tag
Method: (§1) Recombinant human, monkey and mouse IGF-1R-his antigens and human insulin receptor proteins (5 μg/mL) were added to a 96-well plate for coating overnight at 4° C. The plate was washed with PBS, and then was blocked with 1% casein at room temperature for 1 h. The nanobody-Fc fusion proteins were diluted to 2 μg/mL with 0.1% BSA/PBS, added to the antigen-coated 96-well plate, and incubated at room temperature for 1 hour. The plate was washed three times with 0.1% PBST, horseradish peroxidase-labeled anti-human Fc tag antibodies (anti-human IgG-HRP, Abcam ab6759, 1:5,000, containing 1% casein) were added and incubated at room temperature for 30 min, and the plate was washed three times with 0.1% PBST. A TMB substrate solution (Thermo, 34028) was added for color development, and the OD₄₅₀ was read using a microplate reader.

[3] = target: T3, human insulin receptor protein (human, UniProt P06213-2 28-944, limits assumed); test: ELISA, coated antigen 5 µg/mL
T3 construct: also called human insulin receptor proteins
Method: as §1

[4] = target: T1, recombinant human IGF-1R-his; test: competition ELISA, coated hIGF-1R-his, competitor biotinylated IGF-1
Method: Recombinant human IGF1R-his antigen (5 μg/mL) was added to a 96-well plate for coating overnight at 4° C. The plate was washed 4 times with 1×TBST, and then was blocked with 2% BSA at room temperature for 1.5 h. The plate was washed four times with 1×TBST, and 50 μL of nanobody-Fc fusion proteins of different concentrations (with a starting concentration of 10 μg/mL, 2-fold serially diluted) and 50 μL of biotinylated IGF-1 ([…]) were added to the antigen-coated 96-well plate and incubated at 37° C. for 1 h. The plate was washed 4 times with 1×TBST, horseradish peroxidase-labeled Streptavidin (Thermo, 21126) was added and incubated at 37° C. for 1 h, and the plate was washed 4 times with 1×TBST. TMB substrate solution was added at 200 μL per well for color development in the dark for 20 min, 50 μL of 1 M H₂SO₄ was added to terminate the reaction, and the OD₄₅₀ was read using a microplate reader. A curve was fit and the IC₅₀ value was calculated using Graphpad Prism software.

[5] = target: T1, recombinant human IGF-1R-his; test: ELISA, coated hIGF-1R-his
Method: Recombinant human IGF-1R-his antigens (2 μg/mL) were added to a 96-well plate for coating overnight at 4° C. The plate was washed three times with PBST, and then was blocked with PBST containing 5% skimmed milk powder at room temperature for 2 h. The blocking solution was discarded, the plate was washed three times with PBST, and then 30 μL of nanobody-Fc fusion proteins of different concentrations were added and incubated at room temperature for 1 h. The plate was washed 3 times with PBST, horseradish peroxidase-labeled anti-human Fc antibodies (abcam, ab97225) were added at 30 μL/well and incubated at room temperature for 1 h, and the plate was washed 3 times with PBST. TMB substrate solution was added at 30 μL/well for color development in the dark for 5-30 min, 30 μL of 2 M H₂SO₄ was added to terminate the reaction, and the OD₄₅₀ was read using a microplate reader. A curve was fit and the EC₅₀ value was calculated using Graphpad Prism software.

[6] = target: T1, recombinant human IGF-1R-his; test: competition ELISA, coated hIGF-1R-his, competitor IGF-2 (N-Avi & N-Fc)
Method: (§2) Recombinant human IGF-1R-his antigens (5 μg/mL) were added to a 96-well plate for coating overnight at 4° C. The plate was washed 4 times with 1×TBST, and then was blocked with 2% BSA at 37° C. for 1.5 h. The plate was washed four times with 1×TBST. A volume of 50 μL of biotinylated IGF-1-Fc (2.5 μg/mL) or IGF-2 (N-Avi & N-Fc 4 μg/mL), and 50 μL of nanobody-Fc fusion proteins of different concentrations (with a starting concentration of 10 μg/mL, 2-fold serially diluted) were added to the 96-well plate and incubated at 37° C. for 1 h. The plate was washed 4 times with 1×TBST, horseradish peroxidase-labeled Streptavidin (Thermo, 21126) was added and incubated at 37° C. for 1 h, and the plate was washed 4 times with 1×TBST. TMB substrate solution was added at 200 μL/well for color development in the dark for 20 min, 50 μL of 1 M H₂SO₄ was added to terminate the reaction, and the OD₄₅₀ was read using a microplate reader. A curve was fit and the IC₅₀ value was calculated using Graphpad Prism software.

[7] = target: T1, recombinant human IGF-1R-his; test: competition ELISA, coated hIGF-1R-his, competitor biotinylated IGF-1-Fc
Method: as §2

T1 sequence (P08069 31-932 limits assumed): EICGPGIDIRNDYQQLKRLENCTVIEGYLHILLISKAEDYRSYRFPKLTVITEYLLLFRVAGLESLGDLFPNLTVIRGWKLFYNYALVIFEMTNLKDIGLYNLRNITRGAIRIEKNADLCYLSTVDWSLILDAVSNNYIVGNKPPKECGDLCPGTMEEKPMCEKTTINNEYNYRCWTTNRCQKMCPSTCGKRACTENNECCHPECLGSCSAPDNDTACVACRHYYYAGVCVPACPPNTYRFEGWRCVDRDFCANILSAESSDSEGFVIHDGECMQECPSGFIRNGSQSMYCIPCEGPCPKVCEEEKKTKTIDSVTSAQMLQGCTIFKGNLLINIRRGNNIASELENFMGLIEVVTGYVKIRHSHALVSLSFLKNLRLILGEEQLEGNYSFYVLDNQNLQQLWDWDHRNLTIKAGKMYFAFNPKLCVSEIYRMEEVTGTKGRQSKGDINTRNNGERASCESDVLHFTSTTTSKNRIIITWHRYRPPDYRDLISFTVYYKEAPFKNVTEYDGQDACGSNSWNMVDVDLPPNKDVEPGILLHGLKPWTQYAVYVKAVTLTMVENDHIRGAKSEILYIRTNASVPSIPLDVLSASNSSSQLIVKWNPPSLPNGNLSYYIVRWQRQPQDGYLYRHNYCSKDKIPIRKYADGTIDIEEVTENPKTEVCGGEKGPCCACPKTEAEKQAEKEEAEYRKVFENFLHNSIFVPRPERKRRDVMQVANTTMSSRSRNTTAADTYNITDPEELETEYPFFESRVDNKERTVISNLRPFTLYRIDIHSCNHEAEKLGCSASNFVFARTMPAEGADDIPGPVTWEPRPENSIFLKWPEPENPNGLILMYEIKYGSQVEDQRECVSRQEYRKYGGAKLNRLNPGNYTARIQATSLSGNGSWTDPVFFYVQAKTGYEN
T2 sequence (Q60751 31-933 limits assumed): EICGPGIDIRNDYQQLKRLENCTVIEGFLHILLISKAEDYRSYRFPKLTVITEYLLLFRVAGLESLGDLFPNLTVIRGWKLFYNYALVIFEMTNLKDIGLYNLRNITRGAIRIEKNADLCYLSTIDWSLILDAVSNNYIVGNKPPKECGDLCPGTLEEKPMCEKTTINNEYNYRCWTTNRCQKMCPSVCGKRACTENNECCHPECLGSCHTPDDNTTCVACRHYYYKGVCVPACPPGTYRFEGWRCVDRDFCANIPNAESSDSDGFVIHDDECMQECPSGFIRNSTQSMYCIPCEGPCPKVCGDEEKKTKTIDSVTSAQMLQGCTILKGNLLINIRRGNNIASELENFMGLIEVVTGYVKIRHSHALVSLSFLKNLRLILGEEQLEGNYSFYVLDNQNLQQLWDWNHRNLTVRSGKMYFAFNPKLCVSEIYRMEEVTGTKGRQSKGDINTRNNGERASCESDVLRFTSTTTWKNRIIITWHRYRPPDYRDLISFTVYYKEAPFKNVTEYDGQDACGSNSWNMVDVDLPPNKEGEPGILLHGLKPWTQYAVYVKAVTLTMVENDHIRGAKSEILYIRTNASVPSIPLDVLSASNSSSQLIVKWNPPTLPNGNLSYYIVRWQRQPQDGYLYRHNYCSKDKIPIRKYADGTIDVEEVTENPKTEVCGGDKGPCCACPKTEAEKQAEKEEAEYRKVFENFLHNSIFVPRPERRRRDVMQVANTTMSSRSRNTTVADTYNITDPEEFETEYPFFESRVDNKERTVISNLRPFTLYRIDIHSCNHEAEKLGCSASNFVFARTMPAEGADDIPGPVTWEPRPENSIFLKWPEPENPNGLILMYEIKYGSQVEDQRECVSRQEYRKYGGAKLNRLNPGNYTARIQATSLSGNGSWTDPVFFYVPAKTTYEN
T3 sequence (P06213 other isoform, or with tags, fused parts or gaps limits assumed): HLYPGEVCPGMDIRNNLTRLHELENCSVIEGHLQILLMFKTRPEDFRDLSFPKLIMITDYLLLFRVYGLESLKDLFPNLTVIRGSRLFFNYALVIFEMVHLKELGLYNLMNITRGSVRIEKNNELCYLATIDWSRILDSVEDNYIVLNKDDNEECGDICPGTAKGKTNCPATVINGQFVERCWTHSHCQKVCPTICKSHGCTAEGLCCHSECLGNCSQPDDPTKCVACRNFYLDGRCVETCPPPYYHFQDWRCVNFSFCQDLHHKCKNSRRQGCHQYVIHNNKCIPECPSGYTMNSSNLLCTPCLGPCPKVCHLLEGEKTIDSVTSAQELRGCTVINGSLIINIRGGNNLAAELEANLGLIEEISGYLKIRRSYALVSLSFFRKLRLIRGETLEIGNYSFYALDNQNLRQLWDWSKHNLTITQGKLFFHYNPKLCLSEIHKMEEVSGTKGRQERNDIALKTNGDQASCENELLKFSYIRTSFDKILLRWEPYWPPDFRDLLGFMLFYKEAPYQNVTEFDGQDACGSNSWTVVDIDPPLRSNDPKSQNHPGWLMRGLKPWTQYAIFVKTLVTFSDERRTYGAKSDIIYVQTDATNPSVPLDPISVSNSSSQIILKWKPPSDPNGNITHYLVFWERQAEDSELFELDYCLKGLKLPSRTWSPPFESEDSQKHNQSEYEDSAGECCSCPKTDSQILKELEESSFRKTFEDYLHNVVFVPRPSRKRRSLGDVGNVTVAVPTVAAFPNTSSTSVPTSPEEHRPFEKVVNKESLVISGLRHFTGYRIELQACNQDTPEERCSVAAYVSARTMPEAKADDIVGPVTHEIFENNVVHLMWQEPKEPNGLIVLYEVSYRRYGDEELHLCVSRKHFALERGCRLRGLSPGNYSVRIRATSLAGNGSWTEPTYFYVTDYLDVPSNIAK

Binder	IC50 [1] [µg/mL]	binding result [2]	binding result [3]	IC50 [4] [µg/mL]	EC50 [5] [µg/mL]	IC50 [6] [µg/mL]	IC50 [7] [µg/mL]
nanobody 5115 (VHH) (VHH) VHH: EVQLVESGGGLVQAGGSLRLSCAVSGRTFSSFVMGWFRQAPGKEREFVAAISGSGSRANYADSVKGRFTVSRDNANNTVYLQMNSLKPDDTALYYCAANPRRATPDYTQYAYWGQGTQVTVSS	0.24						
5115-Fc fusion protein (Fc fusion, C-terminus of the VHH linked to the N-terminus of human Fc; not shown: The human Fc segment; Any hinge or linker is also unstated) VHH: EVQLVESGGGLVQAGGSLRLSCAVSGRTFSSFVMGWFRQAPGKEREFVAAISGSGSRANYADSVKGRFTVSRDNANNTVYLQMNSLKPDDTALYYCAANPRRATPDYTQYAYWGQGTQVTVSS		no binding (tested: 2 µg/mL)	no binding (tested: 2 µg/mL)	0.435			
nanobody 5666 (VHH) (VHH) VHH: EVQLVESGGGLVQAGGSLRLSCAVSGRTFSSYVMGWFRQAPGKERELVAAISGSGSRSNYADSVKGRFTVSRDNANNTVYLQMSSLRPDDTGLYYCAANPRRATTDYTQYAYWGQGTQVTVSS	0.7						
5115-H0-Fc (Fc fusion, Humanized VHH-Fc; Fc not specified; not shown: Fc) EVQLVESGGGLVQPGGSLRLSCAASGRTFSSFVMSWFRQAPGKEREFVSAISGSGSRAYYADSVKGRFTISRDNSKNTLYLQMNSLRAEDTAVYYCAANPRRATPDYTQYAYWGQGTQVTVSS		no binding (tested: 2 µg/mL)	no binding (tested: 2 µg/mL)		0.0327	0.177	0.236
